The series can be described thus: yeast display, Sf9 membrane polyspecificity reagent, FACS + sequencing; frameworks hold sequencing errors. The procedure, abridged:
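Genes from sorted yeast were amplified by colony PCR, read by MiSeq 2 × 250 sequencing and filtered on CDR length. These cells carried a synthetic nanobody library in Saccharomyces cerevisiae BJ5465 and were sorted by FACS into low and high (top ~1%) gates on anti-HA and streptavidin fluorescence. Polyreactivity is labelled according to the gate of origin.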
Regarding “QVQLVESGGGLVQAGGSLRLSFASSGSTFYYNAMGWYRQAPGKERDLVARISRSGGSTYADSVKGRFTISRDNAKNTVYFQMNSLKPEDTAVSYCNADAYGTPEFTSYAVRYDYGGQGTQVTVSS”, the “polyreactivity (PSR sort gate)” value is “low polyreactivity”.

Regarding “QVQLVESGGGLVQAGGSLRLSGAASGFIFDQNAMGGYRQPPGKVRELVAAISKRGGSTYYADSVKGRFTISRDNAMNTVYLQMNSLKPEDTAVYYCARPRRSVNFYKYIYNYWGQGTLVTVSS”, the “polyreactivity (PSR sort gate)” value is recorded as “high polyreactivity”.

For the sequence “QVQLVESGGGLVQAGGSLRLSGAASGFNLEPNAMGWYRQAPGKERELVATISFSGGGTYYADSVKGRFTISRDNAKNTVYLQMNSLKPEDTAVYYCAADWYYYVWWYDYWGQGTQVTVSS”, the “polyreactivity (PSR sort gate)” value is listed as “high polyreactivity”.

As to “QVQLVESGGGLVQAGGSLRLSGAASGFTFGRNAMGGYRQAPGKEREFVAAISKSATSKYYADSVKGRFTISRDNAKNTVYLQMNSLKPEDTSVYYCARTNYAKRWDFDYWGQGTQVTVSS”, the “polyreactivity (PSR sort gate)” value is on record as “low polyreactivity”.

Regarding “QVQLVESGGGLVQAGGSLRLSGAASGRTFGVYVMGWYRQAPGKERELVAAIDDSGGSTYYADSVKGRFTISRDNAKNTVYLQMNSLKPEDTAVYYCAADFYVVYWGTYSVGYDYWGQGTQVTVSS”, the “polyreactivity (PSR sort gate)” value was “low polyreactivity”.

In the case of “QVQLVESGGGLVQAGGSLRLSGAASGSIFYSNAMGWSRQAPGKERELVAAITVRGGSTYYADSVKGRFTISRDNAKNTVYLQMNSLKQEDTAVYYCAAEYVSYSSYIYGYLGQGTQVTVSS”, the “polyreactivity (PSR sort gate)” value was “high polyreactivity”.

Regarding “QVQLVESGGGLVQAGGSLRLSGAASGSTFRRNAMGWSRQAPGKERELVAAISRRGGRTYYADSVKGRFTISRDNAKNTVYLQLNSLKPEDTAVYYCAADVIYSGDYWGQGTQVTVSS”, the “polyreactivity (PSR sort gate)” value is “high polyreactivity”.

On to “QVQLVESGGGLVQAGGSLRLSGAASGSTFVIYAMGWSRQAPGKERELVAAIRLGGGSTYYADSVKGRFTISRDNAKNTVYLQMNSLKPEDTEVYYCAAEVDQWYYRGYVYWGQGTQVTVSS”, for which the “polyreactivity (PSR sort gate)” value is reported as “high polyreactivity”.

For “QVQLVESGGGLVQAGGSLRLSGDASGSIFVWYDMGWYRQAPGKERELVATISLSGVSTYYADSVKGRFTISRDNAKKTVYLQMNSLKPEDNAVYYCAADFVEQGEDDYCGQGTQVTVSS”, the “polyreactivity (PSR sort gate)” value is given as “low polyreactivity”.

In the case of “QVQLVESGGGLVQAGGSLRLSLAASGRTFEYYAMGWYRQAPGKERELVAAITSGGITYYADSVKGRFTISRDNAKNTVYLQMNSLKPEDTAVYYCNDRHRYYRYGYWGQGSQVTVSS”, the “polyreactivity (PSR sort gate)” value is “high polyreactivity”.

Take “QVQLVESGGGLVQAGGSLRLSLLPPDSPSTTMLWDGIDRRLGKKGSWLPVFLPSGGTTYADSVKGRFTISRDNAKNTVYLQMNSLKPEDTAVYYCAASYYRTRWSWMYYWGQGTQVTVSS”: the “polyreactivity (PSR sort gate)” value is given as “low polyreactivity”.

Take “QVQLVESGGGLVQAGGSLRLSRAASGVIIYRYAMGWYRQAPGKERELVAAISRSGGSTYYADSVKGRFTISRDNAMNTVYLQMNCLKPEDTAVYYCAADRGSLAPGNDYWGQGTQVTVSS”: the “polyreactivity (PSR sort gate)” value is on record as “high polyreactivity”.

Regarding “QVQLVESGGGLVQAGGSLRLSRAATGSIIASYAMGWYRQAPGKERELVSAISARGGSTYYADSVKGRFTISRDNAKNTVYLQMNSLKPEDTAVYSCAARHQQGRRISDYGYWGQGTQVTVSS”, the “polyreactivity (PSR sort gate)” value is listed as “high polyreactivity”.

As to “QVQLVESGGGLVQAGGSLRLSRPASGFTYIYSVMGWYRQAPGKERELVAAINGRGDRKYYADSVKGRFTISRDNAKNTGYLQMNSLKPEDTAVYYCNARTHTWGYSAKFDYWGQGTQVTVSS”, the “polyreactivity (PSR sort gate)” value is “high polyreactivity”.

Turning to “QVQLVESGGGLVQAGGSLRLSSAASGFIFAIYSMGWYRQAPGKERELVAAISRSGGRTYYADSVKGRFTISRDIAKNTVYLQMISLKPEDTAVYYCNARFQYRGVKYYYWGKGTQVTVSS”, the “polyreactivity (PSR sort gate)” value is given as “high polyreactivity”.

As to “QVQLVESGGGLVQAGGSLRLSSAASGFILEPNAMGWYRQAPGKERELVAAITTSGGTYYADSVKGRFTISRDNAKNTVYLQMNSLKPEDTAVYYCNAVSTDSWAYHGDYWGQGTQVTVSS”, the “polyreactivity (PSR sort gate)” value is “low polyreactivity”.

For “QVQLVESGGGLVQAGGSLRLSSAASGFILRTNAMGWYRQAPGKERELVAAISVSGGRTYYADSVKGRFTISRDNAKNTVYLQMNSLKPEDTAVDYCAARDSTKLLSGYTHYYWGQGTQVTVSS”, the “polyreactivity (PSR sort gate)” value was “high polyreactivity”.

As for “QVQLVESGGGLVQAGGSLRLSSAASGFIYRGNVMGWYRQAPGKERELVAAITWSGGSTYYADSVKGRFTISRDNAKNTVYLQMNSLKPDDTAVYYCNADLYIYEWYPALHSNDYWGQGSQVTVSS”, the “polyreactivity (PSR sort gate)” value was “low polyreactivity”.

With “QVQLVESGGGLVQAGGSLRLSSAASGFTFVTYSKGWNRQATGKERELVAAISIRGGSTYADSVKGRFTISRDNAKNSVYLQMNSLKPEDTAVYSCATGRALEYNYWGQGTQVTVSS”, the “polyreactivity (PSR sort gate)” value is “low polyreactivity”.

“QVQLVESGGGLVQAGGSLRLSSAASGFTLDWYVIGWYRKAPWKERELVAAISSSGGRTYYADSVKGRFTISRDNAKNTVYLQMNSLKPEDTAVYYCAARNIYGGYPYGYDYWGQGTQVTVSS”: the “polyreactivity (PSR sort gate)” value is listed as “high polyreactivity”.

As for “QVQLVESGGGLVQAGGSLRLSSAASGHHFRTNAMGWYRQAPGKERELVAVINIGGASTYYADSVKGRFTISRDNAKNTVNLQMNSLKPEDTAVYYCAQEFYDGYFPTFDYDYWGQGTQVTVSS”, the “polyreactivity (PSR sort gate)” value was “low polyreactivity”.

On to “QVQLVESGGGLVQAGGSLRLSSAASGIIFTFNAMRWYRQAPGKEMELVAGISLGGSSTNYADSVKGRFTISRDNAKNTVYLQMNSLKPEDTAVYYCAAYVDIVGDYWVVGYYYWGQGTQVTVSS”, for which the “polyreactivity (PSR sort gate)” value is on record as “low polyreactivity”.

As to “QVQLVESGGGLVQAGGSLRLSSAASGITFDVNVMGWYRQAPRKERELVAAIRRGDSTDYADSVKGRFSISRDNEKNTVYLQMKSLKPEDTAVYYCAADDSGYELRAYTWPYFGYDYWGQGTQVTVSS”, the “polyreactivity (PSR sort gate)” value is “low polyreactivity”.

Regarding “QVQLVESGGGLVQAGGSLRLSSAASGITFYDYAMGWSRPSPGKERELVAAINSSGVRTYYADSVKGRFTISRDNAKNTVYLQMKSLNPEYTAVYYCAAKLVYGGRYGYWGQGTQVTVSS”, the “polyreactivity (PSR sort gate)” value is reported as “high polyreactivity”.

Regarding “QVQLVESGGGLVQAGGSLRLSSAASGITFYGYARGWYRQPPGKEREFVAAISYSGGSTYYADSVKGRFTISRDNAKNTVYLQMNSLKPEDTAVYYCAARVGRSLYGYWGLGTQVTVSS”, the “polyreactivity (PSR sort gate)” value was “high polyreactivity”.

In the case of “QVQLVESGGGLVQAGGSLRLSSAASGLIFFTYAMGWYRQAPGKERELVATISRGGRTKYADSVKGRFTISRDNAKNSVYLQMNSLKPEDTAVYYCAAYLSRSYYAYDYWGQGTQVTVSS”, the “polyreactivity (PSR sort gate)” value is listed as “high polyreactivity”.

Regarding “QVQLVESGGGLVQAGGSLRLSSAASGNIFTYNAMGWYRPARGTERELVAAISSGGSTNYADSVKGRFTISRHNAKNTVYLQLNSLKPEDTAVYYCAADLTISYSQEYYYWGQGTQETVSS”, the “polyreactivity (PSR sort gate)” value was “low polyreactivity”.

With “QVQLVESGGGLVQAGGSLRLSSAASGRIFAVYAMGLYRQAPGKERELVAAINWNDGSTYYADSVKGRFTISRDNAKNTVYLQMNSLKPEDTAVYYCAARALSRSVYGKSGYKYGYWGQGTQVTVSS”, the “polyreactivity (PSR sort gate)” value is reported as “high polyreactivity”.

As to “QVQLVESGGGLVQAGGSLRLSSAASGRIFDGNAMGGYRQAPGTERELVATINRGARTNYADSVKGRFTISRDNAKNTVYLQMNSLKPEDTAVYYCATSYPGYAYNQAWYPYGYWGQGTQVTVSS”, the “polyreactivity (PSR sort gate)” value is reported as “low polyreactivity”.

In the case of “QVQLVESGGGLVQAGGSLRLSSAASGRIFDYYAMGWYRQAPGKESELVAAISSGSSTNYADSVKGRFTISRDNAKNTFYLQMNSLKPEDTAVYYCAATYGYLRRNHYNYWGQGTQVTVSS”, the “polyreactivity (PSR sort gate)” value is “high polyreactivity”.
